Results: patent publication WO2016167227A1

Target: human-derived insoluble fibrin (human) (UniProt P02671)
Test: ELISA, peroxidase-labelled antibody on fibrin plate; 0.1 μg/mL of 443-2 gave about the signal of 10 μg/mL of the reference

Sequence of UniProt P02671 (P02671 36-629 limits assumed, chain 1 of 3): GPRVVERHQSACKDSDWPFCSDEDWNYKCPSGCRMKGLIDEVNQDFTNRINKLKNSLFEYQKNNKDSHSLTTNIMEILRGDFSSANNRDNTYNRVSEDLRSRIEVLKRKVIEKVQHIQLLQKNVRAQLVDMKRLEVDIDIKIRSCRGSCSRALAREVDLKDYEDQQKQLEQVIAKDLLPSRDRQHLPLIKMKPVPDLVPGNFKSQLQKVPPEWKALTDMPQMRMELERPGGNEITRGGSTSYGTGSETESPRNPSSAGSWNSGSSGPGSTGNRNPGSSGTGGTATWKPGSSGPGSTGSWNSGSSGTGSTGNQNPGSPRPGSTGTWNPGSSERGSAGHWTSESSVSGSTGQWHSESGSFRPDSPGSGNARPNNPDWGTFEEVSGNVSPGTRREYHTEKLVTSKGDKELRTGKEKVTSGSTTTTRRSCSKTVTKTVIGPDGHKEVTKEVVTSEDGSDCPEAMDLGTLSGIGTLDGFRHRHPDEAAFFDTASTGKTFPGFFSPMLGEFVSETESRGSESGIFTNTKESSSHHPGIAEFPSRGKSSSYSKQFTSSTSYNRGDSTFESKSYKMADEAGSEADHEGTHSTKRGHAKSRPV
Sequence of UniProt P02671 (chain, as listed by the source limits assumed, chain 2 of 3): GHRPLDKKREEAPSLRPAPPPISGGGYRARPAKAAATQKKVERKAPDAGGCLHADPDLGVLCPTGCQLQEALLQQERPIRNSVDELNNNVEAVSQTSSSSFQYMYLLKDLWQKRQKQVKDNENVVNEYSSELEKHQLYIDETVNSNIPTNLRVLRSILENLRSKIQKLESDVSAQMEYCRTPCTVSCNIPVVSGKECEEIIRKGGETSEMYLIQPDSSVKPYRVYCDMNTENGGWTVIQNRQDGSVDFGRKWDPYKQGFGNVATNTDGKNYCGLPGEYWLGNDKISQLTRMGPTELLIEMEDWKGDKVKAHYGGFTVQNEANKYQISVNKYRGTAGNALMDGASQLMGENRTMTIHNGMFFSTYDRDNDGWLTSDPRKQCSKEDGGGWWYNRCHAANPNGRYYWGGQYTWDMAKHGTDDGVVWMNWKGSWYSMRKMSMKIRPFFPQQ
Sequence of UniProt P02671 (chain, as listed by the source limits assumed, chain 3 of 3): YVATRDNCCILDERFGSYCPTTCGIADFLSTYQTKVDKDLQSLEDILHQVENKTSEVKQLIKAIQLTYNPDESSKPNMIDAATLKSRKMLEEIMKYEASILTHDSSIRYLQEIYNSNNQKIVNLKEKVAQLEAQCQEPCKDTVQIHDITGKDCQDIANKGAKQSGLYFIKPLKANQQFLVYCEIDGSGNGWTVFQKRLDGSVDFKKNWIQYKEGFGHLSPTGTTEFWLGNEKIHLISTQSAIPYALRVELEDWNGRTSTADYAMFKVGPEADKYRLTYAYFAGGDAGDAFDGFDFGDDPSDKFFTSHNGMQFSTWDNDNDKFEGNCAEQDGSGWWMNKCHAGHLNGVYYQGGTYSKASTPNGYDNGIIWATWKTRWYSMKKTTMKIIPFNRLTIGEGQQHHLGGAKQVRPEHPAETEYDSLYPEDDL

- fold affinity for insoluble fibrin against the 102-10 antibody (printed 102-12): 100 times
B1: 443-2 antibody (antibody, V domains shown)
VH: QIQLVQSGPELKKPGESVKISCKASGYTFTDYAMNWVKQAPGNGLKWMGWINTQTGKPTYADDFKQRFVFSLETSATTAYLQINNLNIEDTATYFCTRLMDAWGQGASVTVSS
VL: DIVMTQSPSSLAVSAGETVTINCKSSQSLLSSGNQKNYLAWYQQKPGQSPKLLIYLASTRESGVPDRLIGSGSGTDFTLTISSMQAEDLAIYYCQQYYETPHTFGAGTKLELKR
